Test results: US12269859B2, “Synthetic immune receptors and methods of use thereof” (Angeles Therapeutics, Inc., priority 2016, dated 2025)

System: target antigen-expressing cell line
Test: Jurkat NFAT-GFP assay, coculture with target cell lines expressing the respective target antigen (summary Table 10A)
Format: cell-based, human
Set-up: key: The signs +/−, +, 2+ etc. after the name of the cell lines indicate the relative degree of positivity on the Jurkat-NFAT-GFP assay as measured by the % GFP positive cells; +: relative degree of positivity on the Jurkat-NFAT-GFP assay as measured by the % GFP positive cells; 2+: relative degree of positivity on the Jurkat-NFAT-GFP assay as measured by the % GFP positive cells
Conditions: relative % GFP positive cells; for NFAT-GFP ASSAY Positive Cell lines: HepG2: SIR-expressing Jurkat-NFAT-GFP cells cocultured with HepG2
Experimental: (B) Induction of NFAT promoter driven GFP expression. The control vector- and SIR-expressing Jurkat-NFAT-GFP cocultured for 4-24 hours with the target antigen-expressing cell line (described above) and their ability to bind to the target antigen is assayed by measuring induction of GFP expression using Flow Cytometry. Cellular supernatant is collected and assayed for the induction of cytokines (e.g., IL2).
Jurkat NFAT-GFP Assay For Synthetic Immune Receptors. The Jurkat-NFAT-GFP cells are engineered in such a way that the IL-2 promoter, which carries NFAT binding sites, is cloned upstream of the GFP gene. These cells have been used to study signaling via TCR and CAR. The different SIRs were stably expressed in Jurkat NFAT-GFP cells by lentiviral mediated gene transfer, followed by selection with puromycin. The SIR-expressing Jurkat-NFAT-GFP cells were cocultured with the target cells at E:T ratio of approximately 1:2 for approximately 4 hours to 18 hours. When the interaction between SIRs and their target antigen results in activation of the NFAT pathway, GFP expression is induced.
Induction of GFP expression by coculturing of Jurkat-NFAT-GFP cells expressing different SIR constructs and the different target cells was studied essentially as described previously (Wu, Roybal, Puchner, Onuffer, & Lim, 2015). GFP expression was monitored by FACS analysis. A few representative examples of this assay are shown in the FIG. 13A-B. In panel A, control Jurkat-NFAT-GFP cells or those expressing SIRs targeting CD19 (clone ID 051716-I08), MPL (Clone ID: 040716-A07) and BCMA (Clone ID: 011116-A07) were incubated with RAJI (top), HEL (middle) or U266 (bottom) cells, respectively. […] In panel B, Jurkat cells expressing SIR targeting CDH6 (Clone ID: 051716-J05), CD276 (Clone ID: 050516-Q06) and Her2/neu (Clone ID: 050516-I03) were incubated with SKOV3 (top) and […] (middle and bottom) cells, respectively. […] The Jurkat-NFAT-GFP cells were engineered to express different SIRs targeting other antigens and the experiment repeated upon coculture with the target cells expressing their respective target antigen. The Jurkat-NFAT-GFP (parental) cells were used as control. The names of different SIRs, their SEQ ID NOs, component antigen binding domains and TCR chains can be determined by reference to Tables 7A-7H. A SIR is considered positive in the assay in case the SIR expressing Jurkat-NFAT-GFP cells show greater % GFP positive cells when cultured with the target cell line as compared to parental Jurkat-NFAT-GFP cells. […] The signs +/−, +, 2+ etc. after the name of the cell lines indicate the relative degree of positivity on the Jurkat-NFAT-GFP assay as measured by the % GFP positive cells after culture of the SIR expressing Jurkat-NFAT-GFP cells with that cell line. […] In addition, great diversity of response against the same target cell line is observed with Jurkat cells expressing SIRs containing different antigen binding domains targeting the same antigen (e.g., SIRs having antigen binding domains derived form different CD19 antibodies) even when the SIRs share the same TCR chains and linkers. Finally, Jurkat cells expressing SIRs targeting different antigens (e.g. CD19 vs CD20) show a diversitiy of response when exposed to the same target cell line. Thus, a diverse immune response can be generated against a single target cell by combining SIRs with different TCR chains, linkers, antigen binding domains and target specificity. Table 10A also summarizes the results of GLuc based T cell cytotoxicity assay observed with different SIRs when exposed to their target cell lines. […]

B1: 012417-H04 (protein)
chain: MALPVTALLLPLALLLHAARPLEGKPIPNPLLGLDSTGSGEDLKNVFPPEVAVFEPSKAEIAHTQKATLVCLATGFYPDHVELSWWVNGKEVHSGVCTDPQPLKEQPALNDSRYCLSSRLRVSATFWQNPRNHFRCQVQFYGLSENDEWTQDRAKPVTQIVSAEAWGRADCGITSASYHQGVLSATILYEILLGKATLYAVLVSALVLMAMVKRKDSRGRAKRSGSGATNFSLLKQAGDVEENPGPTSMALPVTALLLPLALLLHAARPDIVMTQSPATLSLSPGERATLSCRSSKSLQNVNGNTYLYWFQQKPGQSPQLLIYRMSNLNSGVPDRFSGSGSGTEFTLTISSLEPEDFAVYYCMQHLEYPITFGAGTKLEIKGGGGSGGGGSGGGGSEVQLVESGGGLVKPGGSLKLSCAASGYTFTSYVMHWVRQAPGKGLEWIGYINPYNDGTKYNEKFQGRVTISSDKSISTAYMELSSLRSEDTAMYYCARGTYYYGTRVFDYWGQGTLVTVSSTREQKLISEEDGSGIQNPDPAVYQLRDSKSSDKSVCLFTDFDSQTNVSQSKDSDVYITDKCVLDMRSMDFKSNSAVAWSNKSDFACANAFNNSIIPEDTFFPSSDVPCDVKLVEKSFETDTNLNFQNLSVIGFRILLLKVAGFNLLMTLRLWSSRAKRSGSGVKQTLNFDLLKLAGDVESNPGPSRGHMTEYKPTVRLATRDDVPRAVRTLAAAFADYPATRHTVDPDRHIERVTELQELFLTRVGLDIGKVWVADDGAAVAVWTTPESVEAGAVFAEIGPRMAELSGSRLAAQQQMEGLLAPHRPKEPAWFLATVGVSPDHQGKGLGSAVVLPGVEAAERAGVPAFLETSAPRNLPFYERLGFTVTADVEVPEGPRTWCMTRKPGA
NFAT-GFP ASSAY Positive Cell lines: NALM6 (SIR-expressing Jurkat-NFAT-GFP cells cocultured with NALM6): (+) | NFAT-GFP ASSAY Positive Cell lines: RAJI (SIR-expressing Jurkat-NFAT-GFP cells cocultured with RAJI): RAJI (2+), NALM6

B2: 012617-M05 (protein)
chain: MALPVTALLLPLALLLHAARPLEGKPIPNPLLGLDSTGSGEDLKNVFPPEVAVFEPSKAEIAHTQKATLVCLATGFYPDHVELSWWVNGKEVHSGVCTDPQPLKEQPALNDSRYCLSSRLRVSATFWQNPRNHFRCQVQFYGLSENDEWTQDRAKPVTQIVSAEAWGRADCGITSASYHQGVLSATILYEILLGKATLYAVLVSALVLMAMVKRKDSRGRAKRSGSGATNFSLLKQAGDVEENPGPTSMALPVTALLLPLALLLHAARPQSVLTQPASVSGSPGQSITISCTGTSSDVGGYNYVSWYQQHPGKAPKLMIYDVNNRPSEVSNRFSGSKSGNTASLTISGLQAEDEADYYCSSYTTGSRAVFGGGTKLTVLGGGGGSGGGGSGGGGSEVQLVQSGAEVKKPGESLTISCKASGYSFPNYWITWVRQMSGGGLEWMGRIDPGDSYTTYNPSFQGHVTISIDKSTNTAYLHWNSLKASDTAMYYCARYYVSLVDIWGQGTLVTVSSTREQKLISEEDGSGIQNPDPAVYQLRDSKSSDKSVCLFTDFDSQTNVSQSKDSDVYITDKCVLDMRSMDFKSNSAVAWSNKSDFACANAFNNSIIPEDTFFPSSDVPCDVKLVEKSFETDTNLNFQNLSVIGFRILLLKVAGFNLLMTLRLWSSRAKRSGSGVKQTLNFDLLKLAGDVESNPGPSRGHMTEYKPTVRLATRDDVPRAVRTLAAAFADYPATRHTVDPDRHIERVTELQELFLTRVGLDIGKVWVADDGAAVAVWTTPESVEAGAVFAEIGPRMAELSGSRLAAQQQMEGLLAPHRPKEPAWFLATVGVSPDHQGKGLGSAVVLPGVEAAERAGVPAFLETSAPRNLPFYERLGFTVTADVEVPEGPRTWCMTRKPGA
NFAT-GFP ASSAY Positive Cell lines: HepG2: HepG2 (2+)

B3: 021317-E02 (protein)
chain: MALPVTALLLPLALLLHAARPLEGKPIPNPLLGLDSTGSGEDLKNVFPPEVAVFEPSKAEIAHTQKATLVCLATGFYPDHVELSWWVNGKEVHSGVCTDPQPLKEQPALNDSRYCLSSRLRVSATFWQNPRNHFRCQVQFYGLSENDEWTQDRAKPVTQIVSAEAWGRADCGITSASYHQGVLSATILYEILLGKATLYAVLVSALVLMAMVKRKDSRGRAKRSGSGATNFSLLKQAGDVEENPGPTSMALPVTALLLPLALLLHAARPQSVLTQPPSVSGAPGQRVTISCTGSSSNIGAGYDVHWYQQLPGTAPKLLIFGNSNRPSGVPDRFSGFKSGTSASLAITGLQAEDEADYFCQSYDSSLSGSGVFGTGTKVTVLGGGGGSGGGGSGGGGSQMQLVQSGGGLVQPGRSLRLSCAASGFTFDDYAMHWVRQAPGKGLEWVSGISWNSGSIGYADSVKGRFTISRDNAKNSLYLQMNSLRAEDTALYYCAKDIHSGSYYGLLYYAMDVWGQGTTVTVSSTREQKLISEEDGSGIQNPDPAVYQLRDSKSSDKSVCLFTDFDSQTNVSQSKDSDVYITDKCVLDMRSMDFKSNSAVAWSNKSDFACANAFNNSIIPEDTFFPSSDVPCDVKLVEKSFETDTNLNFQNLSVIGFRILLLKVAGFNLLMTLRLWSSRAKRSGSGVKQTLNFDLLKLAGDVESNPGPSRGHMTEYKPTVRLATRDDVPRAVRTLAAAFADYPATRHTVDPDRHIERVTELQELFLTRVGLDIGKVWVADDGAAVAVWTTPESVEAGAVFAEIGPRMAELSGSRLAAQQQMEGLLAPHRPKEPAWFLATVGVSPDHQGKGLGSAVVLPGVEAAERAGVPAFLETSAPRNLPFYERLGFTVTADVEVPEGPRTWCMTRKPGA
NFAT-GFP ASSAY Positive Cell lines: HepG2: HepG2 (+)

B4: 051816-Z01 (protein)
chain: MALPVTALLLPLALLLHAARPDVQMIQTPSSLSASLGDRVTISCRASQDIGNYLNWYQQKPDGTVKLLIYYTSRLHSGVPSRFSGSGSGTEYSLTISNLEQEDIATYFCQQGSALPPTFGGGTKLEINLEGKPIPNPLLGLDSTGSGEDLKNVFPPEVAVFEPSKAEIAHTQKATLVCLATGFYPDHVELSWWVNGKEVHSGVCTDPQPLKEQPALNDSRYCLSSRLRVSATFWQNPRNHFRCQVQFYGLSENDEWTQDRAKPVTQIVSAEAWGRADCGITSASYHQGVLSATILYEILLGKATLYAVLVSALVLMAMVKRKDSRGRAKRSGSGATNFSLLKQAGDVEENPGPTSMDWIWRILFLVGAATGAHSFEALQLQQSGAELVRPGASVTLSCKASGYTFTDYEMHWVKQTPVHGLEWIGAIDPETGGTAYNQKFEGKAILTADKSSSTAYMELRSLTSEDSPVYYCARRRYYGSSSFDYWGQGTTLTVSSTREQKLISEEDGSGIQNPDPAVYQLRDSKSSDKSVCLFTDFDSQTNVSQSKDSDVYITDKCVLDMRSMDFKSNSAVAWSNKSDFACANAFNNSIIPEDTFFPSSDVPCDVKLVEKSFETDTNLNFQNLSVIGFRILLLKVAGFNLLMTLRLWSSRAKRSGSGVKQTLNFDLLKLAGDVESNPGPSRGHMTEYKPTVRLATRDDVPRAVRTLAAAFADYPATRHTVDPDRHIERVTELQELFLTRVGLDIGKVWVADDGAAVAVWTTPESVEAGAVFAEIGPRMAELSGSRLAAQQQMEGLLAPHRPKEPAWFLATVGVSPDHQGKGLGSAVVLPGVEAAERAGVPAFLETSAPRNLPFYERLGFTVTADVEVPEGPRTWCMTRKPGA
modifications: Synthetic Immune Receptor (SIR)
NFAT-GFP ASSAY Positive Cell lines: LAN5 (SIR-expressing Jurkat-NFAT-GFP cells cocultured with LAN5): LAN5 (2+)
